One block for each substance: values may come before it.
Tests used:
Activin B = biological target: T1, Activin B (Homo sapiens, UniProt P09529); experiment: Biacore-based binding assay (surface plasmon resonance), activin B; settings: SPR 37° C.; compared to ActRIIB-G1Fc / ActRIIB-Fc homodimer
T1 sequence (P09529 293-407): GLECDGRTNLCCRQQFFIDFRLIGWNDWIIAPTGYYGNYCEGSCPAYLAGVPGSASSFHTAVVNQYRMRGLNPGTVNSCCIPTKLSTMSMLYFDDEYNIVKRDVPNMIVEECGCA
Experimental: (§1) To determine ligand binding profiles of variant ActRIIB-Fc homodimers, a Biacore™-based binding assay was used to compare ligand binding kinetics of certain variant ActRIIB-Fc polypeptides. ActRIIB-Fc polypeptides to be tested were independently captured onto the system using an anti-Fc antibody. Ligands were then injected and allowed to flow over the captured receptor protein. ActRIIB-G1Fc was used as the control polypeptide.
(§2) A Biacore™-based binding assay was used to compare the ligand binding kinetics of an ActRIIB-Fc:ActRIIB(L79E)-Fc heterodimer with those of unmodified ActRIIB-Fc homodimer. Fusion proteins were captured onto the system using an anti-Fc antibody. Ligands were then injected and allowed to flow over the captured receptor protein at 37° C. Results are summarized in the table below, in which ligand off-rates (kd) most indicative of effective ligand traps are denoted in bold.

GDF8 = biological target: T2, GDF8 (Homo sapiens, UniProt O14793); experiment: Biacore-based binding assay (surface plasmon resonance), GDF8; settings: SPR 37° C.; compared to ActRIIB-G1Fc / ActRIIB-Fc homodimer
T2 sequence (O14793 267-375): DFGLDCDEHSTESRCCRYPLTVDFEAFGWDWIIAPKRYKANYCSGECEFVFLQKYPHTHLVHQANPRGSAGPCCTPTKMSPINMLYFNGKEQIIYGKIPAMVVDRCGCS
Experimental: as §1, §2

GDF11 [1] = biological target: T3, GDF11 (Homo sapiens, UniProt O95390); experiment: Biacore-based binding assay (surface plasmon resonance), GDF11; settings: SPR 37° C.; compared to ActRIIB-G1Fc / ActRIIB-Fc homodimer
T3 sequence (O95390 299-407): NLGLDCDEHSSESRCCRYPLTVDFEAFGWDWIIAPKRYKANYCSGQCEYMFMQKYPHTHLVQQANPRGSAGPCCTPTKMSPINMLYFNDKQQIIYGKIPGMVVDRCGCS
Experimental: as §1
as §1, with “protein.” for “protein. ActRIIB-G1Fc was used as the control polypeptide.”
as §2

BMP9 [2] = biological target: T4, BMP9 (Homo sapiens, UniProt Q9UK05); experiment: Biacore-based binding assay (surface plasmon resonance), BMP9; settings: SPR 37° C.; for binding to BMP9 compared to unmodified ActRIIB-Fc (in words): compared to ActRIIB-G1Fc / ActRIIB-Fc homodimer; for reduction in affinity for BMP9 compared with reduction in affinity for GDF11 or activin A: FIG. 9, compared to Fc fusion with unmodified ActRIIB extracellular domain
T4 sequence (Q9UK05 320-429): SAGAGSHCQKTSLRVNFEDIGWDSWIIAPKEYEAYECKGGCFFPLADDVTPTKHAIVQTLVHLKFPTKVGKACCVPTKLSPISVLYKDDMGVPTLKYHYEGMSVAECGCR
Experimental: as §1
as §1, with “protein.” for “protein. ActRIIB-G1Fc was used as the control polypeptide.”
as §2

GDF11 [3] = biological target: T3, GDF11; experiment: A204 cell-based pGL3(CAGA)12 reporter gene assay, signaling by GDF11; settings: A204 reporter gene assay
Source text: (§3) To determine activity of variant ActRIIB-Fc polypeptides, an A204 cell-based assay was used to compare effects among variant ActRIIB-Fc polypeptides on signaling by activin A, activin B, GDF8, GDF11, BMP9, and BMP10, in comparison to ActRIIB-G1Fc. In brief, this assay uses a human A204 rhabdomyosarcoma cell line (ATCC®: HTB-82™) derived from muscle and the reporter vector pGL3(CAGA)12 (Dennler et al., 1998, EMBO 17: 3091-3100) as well as a Renilla reporter plasmid (pRLCMV) to control for transfection efficiency. The CAGA12 motif is present in TGF-β responsive genes (e.g., PAI-1 gene), so this vector is of general use for ligands that can signal through Smad2/3, including activin A. GDF11, and BMP9.
(§4) On day 1. A204 cells were transferred into one or more 48-well plates. On day 2, these cells were transfected with 10 μg pGL3(CAGA)12 or pGL3(CAGA)12(10 μg)+pRLCMV (1 pg) and Fugene. On day 3, ligands diluted in medium containing 0.1% BSA were preincubated with ActRIIB-Fc polypeptides for 1 hr before addition to cells. Approximately six hour later, the cells were rinsed with PBS and lysed. Cell lysates were analyzed in a luciferase assay to determine the extent of Smad activation.
(§5) This assay was used to screen variant ActRIIB-Fc polypeptides for inhibitory effects on cell signaling by activin A, activin B. GDF8, GDF11. BMP9, and BMP10. Potencies of homodimeric Fc fusion polypeptides incorporating amino acid substitutions in the human ActRIIB extracellular domain were compared with that of an Fc fusion polypeptide comprising unmodified human ActRIIB extracellular domain, ActRIIB-G1Fc. For some variants tested, it was not possible to calculate an accurate IC50, but signs of inhibition in the slope of the curves were detectable. For these variants, an estimate was included of the order of magnitude of the relative IC50, i.e. >10 nM or >100 nM instead of a definite number. Such data points are indicated by a (*) in Table 3 below. For some variants tested, there was no detectable inhibition in the slope of the curves over the concentration range tested, which is indicated by “ND” in Table 4.
as §3, with “A,” for “A, activin B, GDF8,”, “GDF11,” for “GDF11, BMP9,”, “and BMP9.” for “and BMP10, in comparison to ActRIIB-G1Fc.”, “(Dennler el” for “(Dennler et”, “activin A,” for “activin A.”
as §4, with “1, A-204” for “1. A204”, “μg)” for “pg)”
(§6) This assay was used to screen variant ActRIIB-Fc polypeptides for inhibitory effects on cell signaling by activin A, GDF11, and BMP9. Potencies of homodimeric Fc fusion polypeptides incorporating amino acid substitutions in the human ActRIIB extracellular domain were compared with that of an Fc fusion polypeptide comprising unmodified human ActRIIB extracellular domain.

Activin A = biological target: T5, Activin A (Homo sapiens, UniProt P08476); experiment: A204 cell-based pGL3(CAGA)12 reporter gene assay, signaling by activin A; settings: A204 reporter gene assay
T5 sequence (P08476 311-426): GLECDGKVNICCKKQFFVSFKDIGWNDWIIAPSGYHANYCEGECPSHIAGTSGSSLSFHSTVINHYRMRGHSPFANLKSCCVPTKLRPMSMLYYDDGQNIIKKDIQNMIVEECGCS
Source text: as §3, §4, §5
as §3, with “A,” for “A, activin B, GDF8,”, “GDF11,” for “GDF11, BMP9,”, “and BMP9.” for “and BMP10, in comparison to ActRIIB-G1Fc.”, “(Dennler el” for “(Dennler et”, “activin A,” for “activin A.”
as §4, with “1, A-204” for “1. A204”, “μg)” for “pg)”
as §6

BMP9 [4] = biological target: T4, BMP9; experiment: A204 cell-based pGL3(CAGA)12 reporter gene assay, signaling by BMP9; settings: A204 reporter gene assay
Source text: as §3, §4, §5
as §3, with “A,” for “A, activin B, GDF8,”, “GDF11,” for “GDF11, BMP9,”, “and BMP9.” for “and BMP10, in comparison to ActRIIB-G1Fc.”, “(Dennler el” for “(Dennler et”, “activin A,” for “activin A.”
as §4, with “1, A-204” for “1. A204”, “μg)” for “pg)”
as §6

GDF11 [5] = biological target: T6, GDF11 (UniProt O95390 299-407); experiment: cell-based or functional assay
T6 construct: also called Growth and differentiation factor-11; BMP11
T6 sequence (looked up): T3 sequence (O95390 299-407)

BMP9 [6] = biological target: T7, BMP9 (UniProt Q9UK05 320-429); experiment: cell-based or functional assay
T7 sequence (looked up): T4 sequence (Q9UK05 320-429)

Substance: F82I-N83R: homodimeric ActRIIB-G1Fc fusion with F82I and N83R substitutions; mature SEQ ID NO: 278
- affinity for activin B compared to unmodified ActRIIB-Fc (in words) (Activin B): relatively high affinity for activin B
- GDF8 binding compared to unmodified ActRIIB-Fc (in words) (GDF8): significant decrease in GDF8 and GDF11 binding
- GDF11 binding compared to unmodified ActRIIB-Fc (in words) (GDF11 [1]): significant decrease in GDF8 and GDF11 binding
- binding to BMP9 compared to unmodified ActRIIB-Fc (in words) (BMP9 [2]): decrease in binding to BMP9

Substance: F82T-N83R: homodimeric ActRIIB-G1Fc fusion with F82T and N83R substitutions; mature SEQ ID NO: 335
- affinity for activin B compared to unmodified ActRIIB-Fc (in words) (Activin B): relatively high affinity for activin B
- GDF8 binding compared to unmodified ActRIIB-Fc (in words) (GDF8): significant decrease in GDF8 and GDF11 binding
- GDF11 binding compared to unmodified ActRIIB-Fc (in words) (GDF11 [1]): significant decrease in GDF8 and GDF11 binding
- binding to BMP9 compared to unmodified ActRIIB-Fc (in words) (BMP9 [2]): decrease in binding to BMP9

Substance: K55E: homodimeric ActRIIB-G1Fc fusion with K55E substitution; mature SEQ ID NO: 36
- inhibition of GDF11 compared to fusion polypeptide with unmodified ActRIIB extracellular domain (in words) (GDF11 [3]): essentially undiminished inhibition of activin A and GDF11
- inhibition of activin A compared to fusion polypeptide with unmodified ActRIIB extracellular domain (in words) (Activin A): essentially undiminished inhibition of activin A and GDF11
- inhibition of BMP9 compared to fusion polypeptide with unmodified ActRIIB extracellular domain (in words) (BMP9 [4]): less potent inhibition of BMP9
- selectivity of antagonism (activin A and GDF11 over BMP9) compared to unmodified ActRIIB-Fc (BMP9 [4]): more selective antagonists of activin A and GDF11
- reduction in affinity for BMP9 compared with reduction in affinity for GDF11 or activin A (BMP9 [2]): reduce ActRIIB binding affinity for BMP9 more than they reduce ActRIIB affinity for activin A or GDF11
- reduction in affinity for BMP9 compared with reduction in affinity for GDF11 or activin A (BMP9 [2]; listed as ActRIIB(K55E)-Fc): greater reduction in their affinity for BMP9 than for GDF11

Substance: K74R (homodimeric ActRIIB-Fc construct) (Fc fusion)
- IC50 (ng/ml), A204 CAGA12 luciferase reporter assay (GDF11 [5]): 45 ng/mL
- IC50 (ng/ml), A204 CAGA12 luciferase reporter assay (BMP9 [6]): 165 ng/mL

Substance: R40A (homodimeric ActRIIB-Fc construct) (Fc fusion)
- IC50 (ng/ml), A204 CAGA12 luciferase reporter assay (GDF11 [5]): 591 ng/mL
- IC50 (ng/ml), A204 CAGA12 luciferase reporter assay (BMP9 [6]): 1210 ng/mL

Further lines, with some results ahead:

- affinity for activin B compared to unmodified ActRIIB-Fc (in words) (Activin B): relatively high affinity for activin B
- binding to BMP9 compared to unmodified ActRIIB-Fc (in words) (BMP9 [2]): decrease in binding to BMP9
Substance: F82K-N83R: homodimeric ActRIIB-G1Fc fusion with F82K and N83R substitutions; mature SEQ ID NO: 332
- GDF8 binding compared to unmodified ActRIIB-Fc (in words) (GDF8): significant decrease in GDF8 and GDF11 binding
- GDF11 binding compared to unmodified ActRIIB-Fc (in words) (GDF11 [1]): significant decrease in GDF8 and GDF11 binding

- inhibition of BMP9 compared to fusion polypeptide with unmodified ActRIIB extracellular domain (in words) (BMP9 [4]): less potent inhibition of BMP9
Substance: F82K: homodimeric ActRIIB-G1Fc fusion with F82K substitution; mature SEQ ID NO: 42
- inhibition of GDF11 compared to fusion polypeptide with unmodified ActRIIB extracellular domain (in words) (GDF11 [3]): essentially undiminished inhibition of activin A and GDF11
- inhibition of activin A compared to fusion polypeptide with unmodified ActRIIB extracellular domain (in words) (Activin A): essentially undiminished inhibition of activin A and GDF11
- selectivity of antagonism (activin A and GDF11 over BMP9) compared to unmodified ActRIIB-Fc (BMP9 [4]): more selective antagonists of activin A and GDF11
- reduction in affinity for BMP9 compared with reduction in affinity for GDF11 or activin A (BMP9 [2]): reduce ActRIIB binding affinity for BMP9 more than they reduce ActRIIB affinity for activin A or GDF11
- reduction in affinity for BMP9 compared with reduction in affinity for GDF11 or activin A (BMP9 [2]; listed as ActRIIB(F82K)-Fc): greater reduction in their affinity for BMP9 than for GDF11

- IC50 (ng/ml), A204 CAGA12 luciferase reporter assay (GDF11 [5]): 389 ng/mL
- IC50 (ng/ml), A204 CAGA12 luciferase reporter assay (BMP9 [6]): 40000 ng/mL
Substance: F82W/N83A (homodimeric ActRIIB-Fc construct) (Fc fusion)

- inhibition of BMP9 compared to fusion polypeptide with unmodified ActRIIB extracellular domain (in words) (BMP9 [4]): less potent inhibition of BMP9
Substance: K55A: homodimeric ActRIIB-G1Fc fusion with K55A substitution; mature SEQ ID NO: 33
- inhibition of GDF11 compared to fusion polypeptide with unmodified ActRIIB extracellular domain (in words) (GDF11 [3]): essentially undiminished inhibition of activin A and GDF11
- inhibition of activin A compared to fusion polypeptide with unmodified ActRIIB extracellular domain (in words) (Activin A): essentially undiminished inhibition of activin A and GDF11
- selectivity of antagonism (activin A and GDF11 over BMP9) compared to unmodified ActRIIB-Fc (BMP9 [4]): more selective antagonists of activin A and GDF11
- reduction in affinity for BMP9 compared with reduction in affinity for GDF11 or activin A (BMP9 [2]): reduce ActRIIB binding affinity for BMP9 more than they reduce ActRIIB affinity for activin A or GDF11
- reduction in affinity for BMP9 compared with reduction in affinity for GDF11 or activin A (BMP9 [2]; listed as ActRIIB(K55A)-Fc): greater reduction in their affinity for BMP9 than for GDF11

From patent publication US20240181007A1, “COMPOSITIONS AND METHODS FOR TREATING PULMONARY HYPERTENSION” (Acceleron Pharma Inc., priority 2021, published 2024)
